According to patent US20180360946A1 (ALBERT EINSTEIN COLLEGE OF MEDICINE, published 2018):

What was measured:
murine mAb 4E11 [1] = test: phage ELISA, phage-displayed DIII titrated on immobilized 4E11; parameters: unit not given here
murine mAb 4E11 [2] = test: ELISA
mAb 2H12 [3] = biological target: T1, mAb 2H12; test: ELISA
T1 construct: also called prototypic AB-loop mAb 2H12

mAb 3H5-1 = biological target: T2, mAb 3H5-1; test: ELISA
T2 construct: also called prototypic FG-loop mAb 3H5-1

murine mAb 4E11 [4] = test: biolayer interferometry
mAb 2H12 [5] = biological target: T1, mAb 2H12; test: biolayer interferometry
murine mAb 4E11 [6] = test: ELISA, purified DIII
mAb 2H12 [7] = biological target: T1, mAb 2H12; test: ELISA, purified DIII

B1: WT DENV2 EDIII (other)
chain: GMSYSMCTGKFKIVKEIAETQHGTIVIRVQYEGDGSPCKIPFEIMDLEKRHVLGRLITVNPIVTEKDSPVNIEAEPPFGDSYIIIGVEPGQLKLNWFKKGSSIGQ
notes: also called WT DENV2 DIII; DENV2 EDIII WT
Q: What does the source list for B1?
A: EC50 (read off the curve) (murine mAb 4E11 [1]): ~5e+08; EC50 (murine mAb 4E11 [2]): 0.002 µM; EC50 (mAb 2H12 [3]): 0.0003 µM; EC50 (mAb 3H5-1): ~2000 µM; Kd (murine mAb 4E11 [4]): ~4 pM; Kd (mAb 2H12 [5]): 0.03 nM; EC50 (murine mAb 4E11 [6]): 0.0024 µM; EC50 (mAb 2H12 [7]): 0.00032 µM
